Reference: the DeepSol protein solubility set

Assay: soluble on expression in E. coli; label from the status in PepcDB or PDB records

Row | Sequence | soluble on expression in E. coli
1 | MLSDITIHNLGVIPSASLELSEGLTVLTGETGAGKTMVVTGLRLLAGGRAEAQRVRSGSSQAVVEGRFLLDSVAPESAEMARAVVSAAGGALDENGEVIVSRTVSAHGRSRAHLGGRSVPAASLVEFSKEVLTIHGQNDQLRLLNSDRQRDALDRFSQKISALMTVYSEAYRAWKNLSKDLQERQASKRELAQEVDRLEFAIREISEVDPQPGEEADLLVQIARLQDVDDLRAQAVGALSVIDGAAGVEGYATCDSSDADAASDLIGQALSSVRVSSDPTLQGVSQQLEAVTSILMEVSAQLGGFLDELPADPQMLDKLLQRQQALKQLTRKYASDIDGVIKWKLKAEQKLESIDVSPEALDQLKKETALAERKMNDAGMALRAARIEAAQELSNAVTKELHGLAMPKAMFSVVVHPTEPQPSGFDEVEFCLAPNNATDPRPLASSASGGELSRVMLALEVILSAGQHGNTLVFDEVDAGVGGRAAVEIGRRLARLAQNNQVIVVTHLPQVAAYADTHLHVAKDVGESTVTSGVEKLSEQRRVEDLARMLAGLEDTDTGRAHAKELFEKAQAENRAFRV | not soluble
2 | MPTDKEGDFIDPKEQEESLENIFSSLNDFQEKTDANAQKNEQKNEQEEEQRRLKEQQRLRKNQKNQEMLKGLQQNLNQFAQKLESVKNKTLDLQIPKQDGVDEKAYQEWYAQIYQILYKGWKGVFYHKASVSALIMIAKDGEFDYTILSYSDFKDYNKSVMTLLNDLKKVDFPPYPGGSMISIQVNFTTKEEQ | not soluble
3 | GHRVWIMYAQPYQVTLQEQQQELAQLEMARSALDSLSELICLQDCQGNLLTTNRAFDQFWEGRREEAITATASRVATRKSERKWTTDTQGRSCLLEVNLSSLVSPS | not soluble
4 | GMELKDIMHILEDMKVGVFATLDEYGNPHARHAHITAANEEGIFFMTSPETHFYDQLMGDQRVAMTAISEEGYLIQVVRVEGTARPVENDYLKTVFADNPYYQHIYKDESSDTMQVFQIYAGHGFYHSLTQGHKYIFSIGQGEHSEVRAL | soluble
5 | MRSQSTHSQSMRSDIYLLLATLLRDVPSAELCAFLAELDFEANGTEMAKAWQAMSAAAQNAQADSLADEYQELFIGIGRGEVVPFASWHLTGSLMEKPLADIRDDLSRLGLERDEQVREPEDHISALCETMAYLCEESGDENAAEETQQAFFNRHIAPWFGKLVSQIRQAPHAQFYLAVAQLLDAFLSLEQVAMTQAPSSRKNRYRIEVKNLTDKAEQ | not soluble
6 | MGSDKIHHHHHHMTPEMYADKYREYASAMPTFQKSIFDQNPIYKIASGPDGNKPIERVKWTKDFLKAFSRYRQPGINAMDLHFYNWNIEHESDTPTDFGEDDWYRVINGTRELDQIINQQADLIKEGLQNIPQPESSLDHRLDRIDLVVGEWGNWHRTAFTAKPALKQQVTMRDAISTALMLDILQKNSDKVTMACVAQTINVLNALILTEGDQTILTPNYDVFMMYKAHRGNSALKIQTNQDQKNVYTFASKKDGEIILDVINANLNDQVKLTVELNREIESISKDFLQSDRPTDFNSSDNPDLIRMQQTEVKDFSKGEITLELSPASVNVFHIKTID | not soluble
7 | GPGSMDRSVAESIRQQSDDLRDELKELEQWEDAMQAREMAKAQRKVPLPTSVAAAEPPIRGTVPSLKEAIRQQQQQARATGTSGDTAAEAIADPIQQAKDKGNVLFQSGHLQEAVAAYTVGIDLDPASATTHVLYANRAMCYLKLGQWTAAEKDATTCVHMNTGYAKAYYRRAVARKQLGKLREARADLEAVLALAPKDVSAQQEMESVTKALQAKRAAESQATTTATTTKKKRIVIEEVDSEGDEAAAEAPATSASKLSTEEEELHQACIEEDMRRLAAARKANEEQVRQEAQREAAAQAKRQRRHERVEIIEEAEHSPAEKKKMAPSPATSSPVVEQTPPLSTSSPPSSSSPSPTSAATRPRARPPIAKESLTAPKSFSEFERRFRELVQQPDLRDHYVRLLDPATMAKLFGSNMSPEMLLGILQAIKTFNATTALQYAKGLCQVSRVEDVALFFDAQEKAVVQDVLDLLRSAPGTPAKDIQQIERKLKPL | soluble
8 | MSTSDTPRTYHHGNLPAVLRQAAWDIVGEAGVRSVSLRECARRANVSHAAPAHHFGSLENLLAEVVADGYERMVDAVQAAQRELDDPVLGCGMGYVNFARQYPQHFRLMFGMTGVNRALPRLVNSGEATLQLLRQSLRTAWIAKNGVEPEPALLEQRTLLAWSTAHGYASLAIDRTTVEPFVVSAESILQPMAVFLLTP | not soluble
9 | MPSISKTKSGERYRAPTDQARKMDRKKENKRNKKDRQQIRQAMAKYCNLDETTSKLLALERQILGLDPQPFHIDVLRKKQKVLTDSINKRRMTLQQGKEDAELKKFNDKINAYQSDCQKLAVLAQQARLAREADPDMIPLPMGDVSTAGPERNNQLLAPAMIKRKVEFQLPPRPVRVAGQKPPGPPCGLAPNFSDSEEEEEEVHDDHYDDIDLAPVPIPEFDNPYQPIHRNYGPPSSYNSMPTRMPHHHHHHHPHASSHYNPMGFQNHHEEAVISSAPQINRSNEPAAPATLSAAPELRNLRRETVKLVPAQLLRRPGDNKTIVPRQAAPVQRRPEVQKQAKNTDEAYNDFMKELDGLI | not soluble
10 | MQDEVVLLDFWPSPFGMRVRIALAEKGIKYEYKEEDLRNKSPLLLQMNPVHKKIPVLIHNGKPICESLIAVQYIEEVWNDRNPLLPSDPYQRAQTRFWADYVDKKIYDLGRKIWTSKGEEKEAAKKEFIEALKLLEEQLGDKTYFGGDNLGFVDIALVPFYTWFKAYETFGTLNIESECPKFIAWAKRCLQKESVAKSLPDQQKVYEFIMDLRKKLGIE | soluble
11 | MSTTANKERCLEMVAAWNRWDVSGVVAHWAPDVVHYDDEDKPVSAEEVVRRMNSAVEAFPDLRLDVRSIVGEGDRVMLRITCSATHQGVFMGIAPTGRKVRWTYLEELRFSEAGKVVEHWDVFNFSPLFRDLGVVPDGL | soluble
12 | EAIKWDKAPCRFCGTGCGVLVGTQQGRVVACQGDPDAPVNRGLNCIKGYFLPKIMYGKDRLTQPLLRMKNGKYDKEGEFTPITWDQAFDVMEEKFKTALKEKGPESIGMFGSGQWTIWEGYAASKLFKAGFRSNNIDPNARHCMASAVVGFMRTFGMDEPMGCYDDIEQADAFVLWGANMAEMHPILWSRITNRRLSNQNVTVAVLSTYQHRSFELADNGIIFTPQSDLVILNYIANYIIQNNAINQDFFSKHVNLRKGATDIGYGLRPTHPLEKAAKNPGSDASEPMSFEDYKAFVAEYTLEKTAEMTGVPKDQLEQLAQLYADPNKKVISYWTMGFNQHTRGVWANNLVYNLHLLTGKISQPGCGPFSLTGQPSACGTAREVGTFAHRLPADMVVTNEKHRDICEKKWNIPSGTIPAKIGLHAVAQDRALKDGKLNVYWTMCTNNMQAGPNINEERMPGWRDPRNFIIVSDPYPTVSALAADLILPTAMWVEKEGAYGNAERRTQFWRQQVQAPGEAKSDLWQLVQFSRRFKTEEVWPEDLLAKKPELRGKTLYEVLYATPEVSKFPVSELAEDQLNDESRELGFYLQKGLFEEYAWFGRGHGHDLAPFDDYHKARGLRWPVVNGKETQWRYSEGNDPYVKAGEGYKFYGKPDGKAVIFALPFEPAAEAPDEEYDLWLSTGRVLEHWHTGSMTRRVPELHRAFPEAVLFIHPLDAKARDLRRGDKVKVVSRRGEVISIVETRGRNRPPQGLVYMPFFDAAQLVNKLTLDATDPLSKETDFKKCAVKLEKV | soluble
13 | MFSGKTSRLIELMERHILAGRKVTLFKPEIDSRYSENEVVTHKGIKLPAVIAPTDERFGEFLAARTRDSNVLGFDEAQFWKPSSRLPQHLEDLANSGRTVYVAALNRDHFGNPFRMTVDILAISDEIYTLSAVCSRCGSDAIFTQRIINGSPAFGEIIRIGGKDLYEPRCRNCFVWPSAQKRITDL | soluble
14 | MLVRLGYVAMSVHLKNASPSQTMTYAQFQKLDDRDAAIRKLERIANSNLENCLRLLKHNKGHDISFFRLSSKLIPLANHEELLEWNYIRPLKENLKKLGEYAVHMNMRIDFHPDHFVVLNSPEESVFKQSVKTLQMHKKLLKGMGIEHKQRCVLHVGGGYKDKELALERFIENWSNVPRGIQEMIILENDDTTFTLEETLYLGEKLDIPVVFDLHHHMMNNEQEDWYEDWARVVHTWETSLLPIKMHISSPREGKDPRAHADYINVDAFLSFLRRIKGSVPQIDCMIEAKMKDESLFQLMRDLSEQVDVEIIDGASFYIK | not soluble
